T1: human GIP receptor (human, UniProt P48546 22-466)
T1 sequence (looked up): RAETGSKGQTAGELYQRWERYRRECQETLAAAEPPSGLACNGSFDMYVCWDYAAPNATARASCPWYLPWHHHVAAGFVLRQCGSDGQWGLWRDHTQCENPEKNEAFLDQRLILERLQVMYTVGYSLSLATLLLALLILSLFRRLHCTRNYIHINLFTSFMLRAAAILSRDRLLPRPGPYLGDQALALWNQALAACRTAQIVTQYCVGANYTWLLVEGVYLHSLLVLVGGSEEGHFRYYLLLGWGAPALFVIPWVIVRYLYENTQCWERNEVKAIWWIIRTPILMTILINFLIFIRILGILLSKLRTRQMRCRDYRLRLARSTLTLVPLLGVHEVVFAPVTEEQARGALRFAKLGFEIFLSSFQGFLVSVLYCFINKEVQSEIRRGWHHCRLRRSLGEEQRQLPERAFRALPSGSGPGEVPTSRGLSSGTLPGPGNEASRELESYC

T2: mouse GIP receptor (mouse, UniProt Q0P543 19-460)
T2 sequence (looked up): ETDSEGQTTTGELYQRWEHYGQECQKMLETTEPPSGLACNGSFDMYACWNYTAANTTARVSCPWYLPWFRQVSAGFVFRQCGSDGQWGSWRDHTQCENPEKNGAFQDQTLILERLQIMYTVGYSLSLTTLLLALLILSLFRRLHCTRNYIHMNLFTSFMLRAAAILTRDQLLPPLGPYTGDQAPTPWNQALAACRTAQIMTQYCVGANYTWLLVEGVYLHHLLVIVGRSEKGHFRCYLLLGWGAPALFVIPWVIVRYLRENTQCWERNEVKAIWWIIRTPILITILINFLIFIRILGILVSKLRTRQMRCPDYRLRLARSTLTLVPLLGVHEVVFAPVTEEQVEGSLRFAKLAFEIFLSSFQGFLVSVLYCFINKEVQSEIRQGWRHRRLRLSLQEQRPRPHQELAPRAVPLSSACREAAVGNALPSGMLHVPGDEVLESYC

B1: IP290 (Fc fusion)
chain: YSEGTFTSDYSKLLEEEAVRLFIEWLVKGPGGGGGGGGGGGGGGGGGGGGACPPC
B2: IP229 (Fc fusion)
chain: YSEGTFTSDYSKLLEEEAVRLFIEWLLAGAAAGGSGSTASSGSGSATGGGGAATHTCPPCPAPEF
B3: IP286 (Fc fusion)
chain: YSEGTFTSDYSKLLEEEAVRLFIEWLVKGPGGGGGGGGGGGGGGGGGGGGGGGGGGGATHTCPPC
B4: IP252 (Fc fusion)
chain: YSEGTFTSDYSKLLEEEAVRLFIEWLVKGPGGGGGSGGGGSGGGGSAESKYGPPCPPCPAPEAA
B5: IP172 (Fc fusion)
chain: HGEGTFTSDVSSYMERQAIDEFIAWLLAGAAAGGSGSTASSGSGSATGGGGAATHTCPPCPAPEF
B6: IP198 (Fc fusion)
chain: HGEGTFTSDVSSYMERQAIDEFIAWLLKGGAAAGGSGSTASSGSGSATGGGGAATHTCPPCPAPEF
B7: IP239 (Fc fusion)
chain: YSEGTFTSDYSKLLEEEAVRLFIEWLVKGPAAAGGSGSTASSGSGSATGGGGAACPPCPAPEF
B8: IP210 (Fc fusion)
chain: YSEGTFTSDLSKLLEEEAVRLFIEWLVKGPAAAGGSGSTASSGSGSATGGGGAATHTCPPCPAPEF
B9: IP211 (Fc fusion)
chain: B8 chain with L10Y, K12S, L13Y, L14M
B10: IP255 (Fc fusion)
chain: YSEGTFTSDYSKLLEEEAVRLFIEWLKNGTGGGGGSGGGGSGGGGSGGGGSATHTCPPCPAPEF
B11: IP265 (Fc fusion)
chain: B10 chain with K27V, N28K, T30P, G32K
B12: IP256 (Fc fusion)
chain: YSEGTFTSDYSKLLEEEAVRLFIEWLLAGGHNITQGGGGGSGGGGSGGGGSGGGGSATHTCPPCPAPEF
B13: IP410 (Fc fusion)
chain: YSEGTFTSLYRIHKEEEAVRLFIEKLLAGGGSGGGGSGGGGSGGGGSGGGGSGGGGSGGGGSGGGGSACPPC
B14: IP285 (Fc fusion)
chain: YSEGTFTSDYSKLLEEEAVRLFIEWLVKGPGGGGGGGGGGGGGGGGGGGGGGGATHTCPPC
B15: IP254 (Fc fusion)
chain: YSEGTFTSDYSKLLEEEAVRLFIEWLLAGNGTGGGGSGGGGSGGGGSGGGGSATHTCPPCPAPEF
B16: IP281 (Fc fusion)
chain: YSEGTFTSDYSKLLEEEAVRLFIEWLVKGPGGGGGSGGGGSGGGGSGGGGSACPPC
B17: IP411 (Fc fusion)
chain: B1 chain with S2G
B18: IP421 (Fc fusion)
chain: HGEGTFTSDLSKQMEEECVRLFIEWLKNGGPSSGAPPPGCGSGGGGSGGGGSGGGGSGGGGSGGGGSGGGGSGGGGSACPPC
B19: IP215 (Fc fusion)
chain: B5 chain with R16S, A18L, I19V, L27V, A28K
B20: IP175 (Fc fusion)
chain: B5 chain with R16S, A18L, I19V, D20R, L27V, A28K
B21: IP214 (Fc fusion)
chain: B5 chain with R16A, A18K, L27V, A28K, A31P, A32P
B22: IP206 (Fc fusion)
chain: B6 chain with R16A, A18S, D20R, L27V, G30P, A32P, A33P
B23: IP423 (Fc fusion)
chain: B13 chain with F6H, L9D, Y10L, H13L, K14L, K25F
B24: IP415 (Fc fusion)
chain: B13 chain with Y1H, E3Q, L9D, R11S, I12K, H13I, K14L, K25W
B25: IP416 (Fc fusion)
chain: B13 chain with L9D, R11S, I12K, H13L, K14L, K25W

Numbering of substitutions follows the chain as printed. Ends that are not written are not given here.

The target in the first experiment is T1, human GIP receptor. In words: cell-based or functional assay.
On to B1, for which the “cAMP EC50” value amounted to 0.018 nM.
In the case of B2, the “cAMP EC50” value is 0.0062 nM.
For the molecule B3, the “cAMP EC50” value was found to be 0.008 nM.
Regarding B4, the “cAMP EC50” value came to 0.024 nM.
For the molecule B5, the “cAMP EC50” value was determined as 16 nM.
Regarding YSEGTFTSDYSKLLEEEAVRLFIEWLVKGPGGGGGSATHTCPPCPAPEF (Fc fusion, cysteine pairing not given here; also: fused to IgG1-TM Fc) [IP234], the “cAMP EC50” value stood at 0.043 nM.
Still for that read-out and setting: for B6 the value was 6.3 nM; for B7, 0.008 nM.
With B8, the “cAMP EC50” value came out at 0.019 nM.
As to B9, the “cAMP EC50” value was 0.5 nM.
For the molecule B10, the “cAMP EC50” value came to 0.07 nM.
Regarding B11, the “cAMP EC50” value came to 0.015 nM.
Still for that read-out and setting: for B12 the value was 0.037 nM; for YSEGTFTSDYSKLLEEEAVRLFIEWLVKGPGGGGGGGATHTCPPC (Fc fusion) [IP283], 0.049 nM.
Turning to B13, the “cAMP EC50, hGIPr (C3) line” value was more than 7.99 nM.
Take B14: the “cAMP EC50” value worked out at 0.0087 nM.
With B15, the “cAMP EC50” value was 0.026 nM.
In the case of YSEGTFTSDYSKLLEEEAVRLFIEWLVKGPGGGGGGGGGGGGATHTCPPC (Fc fusion) [IP284], the “cAMP EC50” value was 0.039 nM.
Turning to B16, the “cAMP EC50” value was determined as 0.014 nM.

The target in a further experiment is human GLP-1 receptor (human, UniProt P43220 24-463). In words: cell-based or functional assay.
Regarding B1, the “cAMP EC50” value was 0.14 nM.
For the molecule B17, the “cAMP EC50” value came out at 0.42 nM.
As for B18, the “cAMP EC50” value was determined as 3 nM.
The same measure, in the same setting: to B2 belongs 0.15 nM.
Take B3: the “cAMP EC50” value was 0.072 nM.
As to B4, the “cAMP EC50” value came out at 0.19 nM.
Regarding B5, the “cAMP EC50” value is 0.057 nM.
Regarding B19, the “cAMP EC50” value amounted to 0.05 nM.
Consider B20, for which the “cAMP EC50” value amounted to 0.051 nM.
For the molecule B21, the “cAMP EC50” value turned out to be 0.075 nM.
The same measure, in the same setting: for YSEGTFTSDYSKLLEEEAVRLFIEWLVKGPGGGGGSATHTCPPCPAPEF (Fc fusion, cysteine pairing not given here; also: fused to IgG1-TM Fc) [IP234] the value was 0.74 nM; for B6, 0.042 nM; for B22, 0.084 nM.
The same measure, in the same setting: to B7 belongs 0.088 nM; to B8, 0.18 nM.
On to B9, for which the “cAMP EC50” value turned out to be 0.23 nM.
On to B10, for which the “cAMP EC50” value is 0.22 nM.
For B11, the “cAMP EC50” value was found to be 0.1 nM.
With B12, the “cAMP EC50” value stood at 0.4 nM.
Consider YSEGTFTSDYSKLLEEEAVRLFIEWLVKGPGGGGGGGATHTCPPC (Fc fusion) [IP283], for which the “cAMP EC50” value stood at 0.56 nM.
On to B23, for which the “cAMP EC50” value was more than 34.2 nM.
As to B24, the “cAMP EC50” value came to 0.038 nM.
On to B13, for which the “cAMP EC50” value was more than 7.99 nM.
On to B25, for which the “cAMP EC50” value came to 0.1 nM.
As for B14, the “cAMP EC50” value came out at 0.076 nM.
Consider B15, for which the “cAMP EC50” value came out at 0.53 nM.
Turning to YSEGTFTSDYSKLLEEEAVRLFIEWLVKGPGGGGGGGGGGGGATHTCPPC (Fc fusion) [IP284], the “cAMP EC50” value was 0.2 nM.
For the molecule B16, the “cAMP EC50” value is 0.087 nM.

The target of the next experiment is human glucagon receptor (human, UniProt P47871 26-477). In words: cell-based or functional assay.
For the molecule B1, the “cAMP EC50” value was more than 2590 nM.
As for B17, the “cAMP EC50” value was more than 631 nM.
On to B18, for which the “cAMP EC50” value is more than 106 nM.
Turning to B2, the “cAMP EC50” value came out at 28 nM.
Take B3: the “cAMP EC50” value turned out to be 920 nM.
Consider B4, for which the “cAMP EC50” value is more than 3200 nM.
Take B5: the “cAMP EC50” value is more than 15000 nM.
For the molecule YSEGTFTSDYSKLLEEEAVRLFIEWLVKGPGGGGGSATHTCPPCPAPEF (Fc fusion, cysteine pairing not given here; also: fused to IgG1-TM Fc) [IP234], the “cAMP EC50” value was more than 15000 nM.
Consider B7, for which the “cAMP EC50” value is more than 990 nM.
For the molecule B10, the “cAMP EC50” value was more than 4600 nM.
Take B11: the “cAMP EC50” value is more than 13000 nM.
Take B12: the “cAMP EC50” value is more than 420 nM.
Turning to YSEGTFTSDYSKLLEEEAVRLFIEWLVKGPGGGGGGGATHTCPPC (Fc fusion) [IP283], the “cAMP EC50” value was more than 17000 nM.
Turning to B23, the “cAMP EC50” value was more than 34.2 nM.
As to B24, the “cAMP EC50” value turned out to be 0.018 nM.
Turning to B13, the “cAMP EC50” value is more than 7.99 nM.
With B25, the “cAMP EC50” value stood at 3.4 nM.
For B14, the “cAMP EC50” value amounted to 1600 nM.
Consider B15, for which the “cAMP EC50” value is 160 nM.
With YSEGTFTSDYSKLLEEEAVRLFIEWLVKGPGGGGGGGGGGGGATHTCPPC (Fc fusion) [IP284], the “cAMP EC50” value was 18000 nM.
In the case of B16, the “cAMP EC50” value worked out at 3800 nM.

The next experiment has as its target T2, mouse GIP receptor. In words: cell-based or functional assay.
With B17, the “cAMP EC50” value was more than 631 nM.
For B18, the “cAMP EC50” value is more than 106 nM.
As to B23, the “cAMP EC50” value was 12 nM.
As for B24, the “cAMP EC50” value is 5.6 nM.
On the same count and under the same terms, for B25 the value was 1.1 nM.

Values taken from patent US20160185837A1 (AstraZeneca / MedImmune, published 2016).
